What was measured:
Human serum albumin = molecular target: T1, Human serum albumin (human, UniProt P02768 25-609); assay: phage ELISA: clones with higher absorbance than on BSA, sequenced
T1 construct: Bought protein; also called HSA; HAS
Procedure: (§1) The transformed cells were infected with Ex helper phages (5×10⁹ pfu/ml; OD=0.8-1.0) and cultured at 37° C. for 1 hr with shaking at 200 rpm. After removing the supernatant by centrifuging at 1,000×g for 10 min, the precipitated cells were resuspended in 1 ml LB liquid media supplemented with 50 μg/ml ampicillin and 25 μg/ml kanamycin, and cultured at 30° C. overnight with shaking at 200 rpm. The supernatant was collected by centrifuging at 10,000×g for 20 min at 4° C. and mixed with 2% skim milk, which is used in detection of phage peptides.
(§2) Fibronectin ED-B, VEGF, VCAM1, Nicotinic acetylcholine receptor (nAchR), Human serum albumin and MyD88 (each 5 μg/ml) and BSA (10 μg/ml) were added to 30 wells (50 μl per well) in a 96-well ELISA plate and then kept to stand at 4° C. overnight. Next day, all wells were washed with 0.1% PBST three times, and blocked at room temperature for 2 hrs using 2% skim milk diluted with PBS. Then, the solution was removed and the plate was washed with 0.1% PBST three times. Phage peptide solution (100 μl) amplified from each clone was divided into all wells and kept to stand at 27° C. for 1.5 hrs. After washing with 0.1% PBST 5 times, HRP-conjugated anti-M13 antibodies (1:1,000 dilution; GE Healthcare) were added to each well and incubated at 27° C. for 1 hr. After washing with 0.1% PBST 5 times, 100 μl TMB was divided into each well to induce colorimetric reaction, followed by stopping the reaction adding 100 μl of 1 M HCl. The absorbance was measured at 450 nm to select phages which had the absorbance higher than BSA. XL1 cells were infected with these phages and spread in plate to produce 100-200 of plaques. Using a sterile tip, plaques were inoculated in 4 ml LB-ampicillin (50 μg/ml) media and cultured at 37° C. overnight with vigorous shaking. Plasmids were purified by plasmid preparation kit (GeneAll, Seoul, Korea), and then sequenced. The following phagemid sequence was used for sequencing: 5′-[…]-3′.
(§3) The phages recovered from biopanning step having the highest ratio of output phage to input phage were isolated as plaques. Sixty plaques were amplified from each plaque, and then ELISA for BSA was carried out (FIG. 4). After selecting clones with higher absorbance compared to BSA, they were sequenced. We isolated peptides specific to each protein which were repetitively found in DNA sequencing (Table 3).

[1] = molecular target: T2, Fibronectin ED-B protein (human fibronectin extra domain B, N-terminal His-tag) (human, UniProt P02751 1266-1356, biotinylated with sulfo-NHS-SS-biotin for biopanning, input-phage ELISA and SPR on the streptavidin chip); assay: SPR (BIAcore X), biotinylated ED-B on SA chip
T2 construct: domain: ED-B; Expressed in E. coli BL21 from pET28b; also called biotinylated-EDB; not shown: N-terminal His-tag from the pET28b vector
T2 sequence (P02751 1266-1356): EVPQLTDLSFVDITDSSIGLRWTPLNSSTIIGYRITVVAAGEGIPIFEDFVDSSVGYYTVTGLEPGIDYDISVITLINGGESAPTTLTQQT
Procedure: (§4) Bipodal-peptide binder peptides specific to ED-B, VEGF or nAchR which were repetitively found in DNA sequencing were synthesized from Anigen Inc. (Korea). Affinity was measured using BIAcore X instrument (Biacore AB, Uppsala, Sweden). ED-B and nAchR were immobilized on streptavidin (SA) chip (Biacore) by injecting 2,000 RU biotinylated-EDB. VEGF was immobilized on CM5 chip (Biacore) using EDC/NHS. PBS (pH 7.4) was used as a running buffer.
(§5) The above-mentioned peptides were synthesized and their affinities to fibronectin ED-B, VEGF, VCAM1, nAchR and HAS were measured using SPR Biacore system (Biacore AB, Uppsala, Sweden).

[2] = molecular target: T2, Fibronectin ED-B protein (human …); assay: SPR (BIAcore X), biotinylated ED-B on streptavidin chip, synthetic peptide as analyte
Procedure: as §4, §5

[3] = molecular target: T3, VEGF121 (human vascular endothelial growth factor) (human, UniProt P15692-9 27-147); assay: phage ELISA: clones with higher absorbance than on BSA, sequenced
T3 construct: Immobilised on a CM5 chip by EDC/NHS for SPR and coated on plates for phage ELISA; also called VEGF-Trx cut with thrombin
T3 sequence (looked up): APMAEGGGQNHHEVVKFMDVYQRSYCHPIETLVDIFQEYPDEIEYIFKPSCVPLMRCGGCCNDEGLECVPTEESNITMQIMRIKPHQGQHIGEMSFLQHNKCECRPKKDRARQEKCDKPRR
Procedure: as §1, §2, §3

[4] = molecular target: T4, Peptide fragment of nAchR (Nicotinic acetylcholine receptor), 32 mer, biotinylated (N-terminal biotin); assay: as above
T4 construct: Synthesised by Anigen; Immobilised on a streptavidin chip for SPR; also called biotinylated nAchR; biotinylated-nAchR peptide
T4 peptide: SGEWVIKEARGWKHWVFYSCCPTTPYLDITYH
Procedure: as §1, §2, §3

[5] = molecular target: T2, Fibronectin ED-B protein (human …); assay: SPR (BIAcore X), 2,000 RU biotinylated ED-B on streptavidin chip, PBS pH 7.4, 30 µl/min
Procedure: (§6) In addition to tryptophan zipper, GB1 m3 and HP7 peptide as a type of other (3-hairpin backbones were synthesized to contain N-terminal sequence (HCSSAV) and C-terminal sequence (IIRLEQ) of peptide 2 which is specifically bound to ED-B (Anigen, Korea). In other words, the sequence of bipodal-peptide binder in tryptophan zipper is […], and in GB1 m3 and HP7 are […] and […], respectively. Affinity of each peptide was measured using BIAcore X (Biacore AB, Uppsala, Sweden). ED-B was immobilized on streptavidin (SA) chip (Biacore) by injecting 2,000 RU biotinylated-EDB. PBS (pH 7.4) was used as a running buffer. […] It could be appreciated that all stable β-hairpin motifs may function as a structure stabilizing region.

[6] = molecular target: T2, Fibronectin ED-B protein (human …); assay: SPR (BIAcore X), biotinylated ED-B on SA chip; remark: listed apart in the source
Procedure: as §6

[7] = molecular target: T2, Fibronectin ED-B protein (human …); assay: SPR (Biacore), ED-B
Procedure: as §4
(§7) To verify cooperative effect of bipodal-peptide binder to antigen, we synthesized two peptides removing either N- or C-terminal region of peptide 2 to ED-B having excellent specificity in Table 3a for affinity measurement.

[8] = molecular target: T2, Fibronectin ED-B protein (human …); assay: SPR, synthetic truncated peptide on ED-B
Procedure: as §4, §7

[9] = molecular target: T3, VEGF121 (human vascular endothelial …); assay: SPR (BIAcore X), VEGF on CM5 chip, synthetic peptide as analyte
Procedure: as §4, §5

[10] = molecular target: T3, VEGF121 (human vascular endothelial …); assay: SPR (BIAcore X), VEGF on CM5 chip
Procedure: as §4, §5

T1 sequence (P02768 25-609 limits assumed): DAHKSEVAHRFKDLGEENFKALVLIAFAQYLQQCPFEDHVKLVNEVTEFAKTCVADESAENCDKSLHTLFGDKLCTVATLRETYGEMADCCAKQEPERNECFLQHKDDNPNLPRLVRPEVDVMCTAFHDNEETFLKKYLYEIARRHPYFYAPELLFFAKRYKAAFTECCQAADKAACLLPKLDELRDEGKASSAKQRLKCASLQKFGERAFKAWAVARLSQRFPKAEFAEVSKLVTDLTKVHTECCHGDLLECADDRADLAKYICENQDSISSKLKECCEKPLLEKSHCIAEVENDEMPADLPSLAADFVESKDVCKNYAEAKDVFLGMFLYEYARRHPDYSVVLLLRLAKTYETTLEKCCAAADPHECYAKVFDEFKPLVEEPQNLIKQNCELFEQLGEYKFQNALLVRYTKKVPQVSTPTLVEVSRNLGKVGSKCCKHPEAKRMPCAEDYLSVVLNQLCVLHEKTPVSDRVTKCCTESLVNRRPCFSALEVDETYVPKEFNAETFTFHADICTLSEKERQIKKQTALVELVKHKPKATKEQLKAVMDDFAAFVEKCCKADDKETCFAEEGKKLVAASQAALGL

Q: Does YAHVYYGSWTWENGKWTWKGHRVTQT [Peptide 3 specific to HSA (Table 3e), bipodal-peptide binder] bind (Human serum albumin)?
A: Result: binds

Q: What does the source list for MSADKSGSWTWENGKWTWKGQVRTRD [Peptide 1 specific to fibronectin ED-B (Table 3a), bipodal-peptide binder]?
A: koff [1]: 0.024 s⁻¹; kon [1]: 38000 M⁻¹ s⁻¹; Kd [2]: 620 nM

Q: Does YGAYPWGSWTWENGKWTWKGWRVSRD bind [3]?
A: Result: binds

Q: Does YGAYPWGSWTWENGKWTWKGWRVSRD bind (Human serum albumin)?
A: Result: binds

Q: Does YAHFGWGSWTWENGKWTWKGTTDSQS [Peptide 5 specific to HSA (Table 3e), bipodal-peptide binder] bind (Human serum albumin)?
A: Result: binds

Q: Does HAFYYTGSWTWENGKWTWKGWPVTTS [Peptide 3 specific to VEGF (Table 3b), bipodal-peptide binder] bind [3]?
A: Result: binds

Q: Does YAYPLLGSWTWENGKWTWKGWYQKWI [Peptide 2 specific to nAchR (Table 3d), bipodal-peptide binder] bind [4]?
A: Result: binds

Q: For HSQGSPGSWTWENGKWTWKGRYSHRA [Peptide 3 specific to fibronectin ED-B (Table 3a), bipodal-peptide binder], which koff [1] is on record?
A: Its koff is 0.099 s⁻¹.

Q: What about the kon [1] of the same binder?
A: The kon was 390000 M⁻¹ s⁻¹.

Q: And the Kd [2]?
A: Its Kd is 2500 nM.

Q: For HCSSAVGKTWNPATGKWTEGIIRLEQ (Synthetic peptide (Anigen)) [Bipodal-peptide binder with HP7 β-hairpin backbone carrying the ED-B peptide 2 binding regions], which Kd [5] is on record?
A: Its Kd is 84 nM.

Q: And the koff [6]?
A: The koff was 0.0197 s⁻¹.

Q: What about the kon [6] of the same binder?
A: Its kon is 236000 M⁻¹ s⁻¹.

Q: With GSWTWENGKWTWKGIIRLEQ [C-terminal region peptide derived from ED-B peptide 2 (monopodal, one target binding region removed)] as the binder, how does the koff [7] read?
A: The koff was 0.022 s⁻¹.

Q: What about the kon [7] of the same binder?
A: Its kon is 1770 M⁻¹ s⁻¹.

Q: And the Kd [8]?
A: Its Kd is 12800 nM.

Q: Does AAPTSFGSWTWENGKWTWKGWQMWHR [Peptide 5 specific to VEGF (Table 3b), bipodal-peptide binder] bind [3]?
A: Result: binds

Q: What does the source list for ASPFWAGSWTWENGKWTWKGWVPSNA [Peptide 2 specific to VEGF (Table 3b), bipodal-peptide binder]?
A: Kd [9]: 326 nM; koff [10]: 0.011 s⁻¹; kon [10]: 35000 M⁻¹ s⁻¹

Q: Does ASLPAWGSWTWENGKWTWKGWSTRTA [Peptide 3 specific to nAchR (Table 3d), bipodal-peptide binder] bind [4]?
A: Result: binds

Q: Which results are given for HCSSAVGSWTWENGKWTWKG [N-terminal region peptide derived from ED-B peptide 2 (monopodal, one target binding region removed)]?
A: koff [7]: 2.54 s⁻¹; kon [7]: 4290 M⁻¹ s⁻¹; Kd [8]: 592000 nM

Q: Does SANSLYGSWTWENGKWTWKGTSRQRW [Peptide 2 specific to HSA (Table 3e), bipodal-peptide binder] bind (Human serum albumin)?
A: Result: binds

Q: For HCSSAVGKKWTYNPATGKFTVQEGIIRLEQ (Synthetic peptide (Anigen)) [Bipodal-peptide binder with GB1 m3 β-hairpin backbone carrying the ED-B peptide 2 binding regions], which Kd [5] is on record?
A: Its Kd is 70 nM.

Q: And the koff [6]?
A: Its koff is 0.0119 s⁻¹.

Q: And the kon [6]?
A: The kon was 169000 M⁻¹ s⁻¹.

Reference: US20120309934A1 (GWANGJU INSTITUTE OF SCIENCE AND TECHNOLOGY, published 2012)
